From patent US6946133
Values belong to the binder of their own block, whether it stands above or below them.

Experiments:
[1] = target: T1, HLA class I-A2 molecule (human), P04439; experiment: T2 cell binding assay, peptide 50 µg/ml, HLA-A2 upregulation read with MAb A2,69 by flow cytometry
T1 chain: not shown

[2] = target: T1, HLA class I-A2 molecule (human), P04439; experiment: T2 binding assay, peptide 50 µg/ml for 24 h, anti-HLA-A2 mAb, flow cytometry; cut off for positivity 100

- mean channel fluorescent intensity [1]: 224
B1: PSA peptide 146-154 (peptide)
peptide: KLQCVDLHV
modifications: not checked

- T2 binding, relative fluorescence (mean intensity) [2]: 63.3
B2: prostate specific antigen oligo-epitope peptide (PSA-OP) (peptide)
peptide: FLTPKKLQCVDLHVISNDVCAQVHPQKVTK
modifications: not checked

- mean channel fluorescent intensity [1]: 230
- T2 binding, relative fluorescence (mean intensity) [2]: 128
B3: PSA peptide 141-150 (peptide)
peptide: FLTPKKLQCV
modifications: not checked
